# Test results from patent publication US20230220589A1.
# Residue numbers refer to the chain shown, from its start.
# B1: engineered M17-Y binder (SEQ ID NO: 61) (designed binder, not shown: small tags and cut ends; large carriers)
# chain: TVPDRSEIAGKWYVVALASNTEFYLREKDWVKSAMARISFLGEDELKVSSAVPSPNGCYKVERTWKKTSDDGEVYNSRAAKLKVEVLDTDYKSYAVIYATRVKDGRTDHQMILYSRSPEVSPAATAIFRKLAGERNYTDEMVAMLPRQEECTVDEV
# B2: upgraded binder after additional maturation round (SEQ ID NO: 62) (designed binder, not shown: small tags and cut ends; large carriers)
# chain: B1 chain with E27G, W30R, A36V, L41Q, G105R, E119D
# B3: engineered M44-L binder (SEQ ID NO: 31) (designed binder, not shown: small tags and cut ends; large carriers)
# chain: QDSTQNLIPAPPLISVPLQPGFWTERFQGRWFLVGFAGNAVQKERQSRLTMQSLILELQEDNSYNITAINVRGQGCRYIISTLVPSSRPGQFTLGNIHSYPQIQSLDVQVADTDYDQFAMVFLQGTSENKQYFEVALAGRTKGLSDELKERFVSFAKSLGLKDNNIVFSVPTDQCIDN
# B4: engineered M44-A binder (SEQ ID NO: 42) (designed binder, not shown: small tags and cut ends; large carriers)
# chain: QVSVQPNFQQDKFLGRWFVAGLASNSSWDREKVAALSGAKMVVAPATDGGLNVTRTMLRKNQCETYTGLLQPAGSLGSYSWRSPHPGSTGSESVVETDYDQYALVYGQGSKGPGEDLRAAALWSRTQTPRAELKEKFTAFSKAQGFTEDTIVFLPQTDKCMTEQ
# Experiments:
# [1] = target: M17-modified Q NTAA target peptides; assay: encoding assay; P2 F;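 further: fraction of recording tags encoded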
# [2] = target: M17-modified H NTAA target peptides; assay: encoding assay; P2 F;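 further: fraction of recording tags encoded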
# [3] = target: M17-modified A NTAA target peptides; assay: encoding assay; P2 F;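 further: fraction of recording tags encoded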
# [4] = target: M17-modified N NTAA target peptides; assay: encoding assay; P2 F;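 further: fraction of recording tags encoded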
# [5] = target: M17-modified L NTAA target peptides; assay: encoding assay; P2 F;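 further: fraction of recording tags encoded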
# [6] = target: M17-modified T NTAA target peptides; assay: encoding assay; P2 F;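 further: fraction of recording tags encoded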
# [7] = target: M17-modified E NTAA target peptides; assay: encoding assay; P2 F;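 further: fraction of recording tags encoded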
# [8] = target: M17-modified I NTAA target peptides; assay: encoding assay; P2 F;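 further: fraction of recording tags encoded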
# [9] = target: M17-modified S NTAA target peptides; assay: encoding assay; P2 F;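 further: fraction of recording tags encoded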
# [10] = target: M17-modified D NTAA target peptides; assay: encoding assay; P2 F;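 further: fraction of recording tags encoded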
# [11] = target: M17-modified Y NTAA target peptides (M17-Y-P2-peptide); assay: encoding assay; P2 F;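 further: fraction of recording tags encoded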
# [12] = target: M17-modified M NTAA target peptides; assay: encoding assay; P2 F;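 further: fraction of recording tags encoded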
# [13] = target: M17-modified W NTAA target peptides; assay: encoding assay; P2 F;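 further: fraction of recording tags encoded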
# [14] = target: M17-modified P NTAA target peptides; assay: encoding assay; P2 F;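 further: fraction of recording tags encoded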
# [15] = target: M17-modified G NTAA target peptides; assay: encoding assay; P2 F;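 further: fraction of recording tags encoded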
# [16] = target: M17-modified V NTAA target peptides; assay: encoding assay; P2 F;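 further: fraction of recording tags encoded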
# [17] = target: M17-modified F NTAA target peptides; assay: encoding assay; P2 F;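 further: fraction of recording tags encoded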
# [18] = target: M17-modified Q NTAA target peptides; assay: encoding assay; P2 N;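 further: fraction of recording tags encoded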
# [19] = target: M17-modified A NTAA target peptides; assay: encoding assay; P2 N;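 further: fraction of recording tags encoded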
# [20] = target: M17-modified N NTAA target peptides; assay: encoding assay; P2 N;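 further: fraction of recording tags encoded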
# [21] = target: M17-modified L NTAA target peptides; assay: encoding assay; P2 N;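 further: fraction of recording tags encoded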
# [22] = target: M17-modified T NTAA target peptides; assay: encoding assay; P2 N;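 further: fraction of recording tags encoded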
# [23] = target: M17-modified E NTAA target peptides; assay: encoding assay; P2 N;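 further: fraction of recording tags encoded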
# [24] = target: M17-modified Y NTAA target peptides (M17-Y-P2-peptide); assay: encoding assay; P2 N;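 further: fraction of recording tags encoded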
# [25] = target: M17-modified W NTAA target peptides; assay: encoding assay; P2 N;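 further: fraction of recording tags encoded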
# [26] = target: M17-modified G NTAA target peptides; assay: encoding assay; P2 N;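 further: fraction of recording tags encoded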
# [27] = target: M17-modified V NTAA target peptides; assay: encoding assay; P2 N;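 further: fraction of recording tags encoded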
# [28] = target: M17-modified Q NTAA target peptides; assay: encoding assay; P2 M;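 further: fraction of recording tags encoded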
# [29] = target: M17-modified H NTAA target peptides; assay: encoding assay; P2 M;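 further: fraction of recording tags encoded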
# [30] = target: M17-modified A NTAA target peptides; assay: encoding assay; P2 M;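 further: fraction of recording tags encoded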
# [31] = target: M17-modified N NTAA target peptides; assay: encoding assay; P2 M;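 further: fraction of recording tags encoded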
# [32] = target: M17-modified L NTAA target peptides; assay: encoding assay; P2 M;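 further: fraction of recording tags encoded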
# [33] = target: M17-modified T NTAA target peptides; assay: encoding assay; P2 M;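 further: fraction of recording tags encoded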
# [34] = target: M17-modified E NTAA target peptides; assay: encoding assay; P2 M;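 further: fraction of recording tags encoded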
# [35] = target: M17-modified I NTAA target peptides; assay: encoding assay; P2 M;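 further: fraction of recording tags encoded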
# [36] = target: M17-modified S NTAA target peptides; assay: encoding assay; P2 M;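 further: fraction of recording tags encoded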
# [37] = target: M17-modified D NTAA target peptides; assay: encoding assay; P2 M;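 further: fraction of recording tags encoded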
# [38] = target: M17-modified Y NTAA target peptides (M17-Y-P2-peptide); assay: encoding assay; P2 M;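 further: fraction of recording tags encoded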
# [39] = target: M17-modified M NTAA target peptides; assay: encoding assay; P2 M;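 further: fraction of recording tags encoded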
# [40] = target: M17-modified W NTAA target peptides; assay: encoding assay; P2 M;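 further: fraction of recording tags encoded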
# [41] = target: M17-modified P NTAA target peptides; assay: encoding assay; P2 M;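 further: fraction of recording tags encoded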
# [42] = target: M17-modified G NTAA target peptides; assay: encoding assay; P2 M;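 further: fraction of recording tags encoded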
# [43] = target: M17-modified V NTAA target peptides; assay: encoding assay; P2 M;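 further: fraction of recording tags encoded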
# [44] = target: M17-modified F NTAA target peptides; assay: encoding assay; P2 M;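 further: fraction of recording tags encoded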
# [45] = target: M44-modified P NTAA target peptides; assay: encoding assay; P2 A;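 further: fraction of recording tags encoded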
# [46] = target: M44-modified A NTAA target peptides (M44-A-P2-peptide); assay: encoding assay; P2 N;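 further: fraction of recording tags encoded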
# [47] = target: M44-modified P NTAA target peptides; assay: encoding assay; P2 N;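 further: fraction of recording tags encoded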
# [48] = target: M44-modified A NTAA target peptides (M44-A-P2-peptide); assay: encoding assay; P2 M;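 further: fraction of recording tags encoded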
# [49] = target: M44-modified G NTAA target peptides (M44-G-P2-peptide); assay: encoding assay; P2 M;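 further: fraction of recording tags encoded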
# [50] = target: M44-modified W NTAA target peptides; assay: encoding assay; P2 M;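 further: fraction of recording tags encoded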
# [51] = target: M44-modified Q NTAA target peptides; assay: encoding assay; P2 M;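 further: fraction of recording tags encoded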
# [52] = target: M44-modified D NTAA target peptides; assay: encoding assay; P2 M;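 further: fraction of recording tags encoded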
# [53] = target: M44-modified H NTAA target peptides; assay: encoding assay; P2 M;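 further: fraction of recording tags encoded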
# [54] = target: M44-modified S NTAA target peptides; assay: encoding assay; P2 M
binder,measurement,setting,value
B1,encoding yield,[1],0.02
same,encoding yield,[2],0.03
same,encoding yield,[3],0.02
same,encoding yield,[4],0.02
same,encoding yield,[5],0.04
same,encoding yield,[6],0.02
same,encoding yield,[7],0.04
same,encoding yield,[8],0.06
same,encoding yield,[9],0.02
same,encoding yield,[10],0.02
same,encoding yield,[11],0.2
same,encoding yield,[12],0.03
same,encoding yield,[13],0.05
same,encoding yield,[14],0.01
same,encoding yield,[15],0.03
same,encoding yield,[16],0.02
same,encoding yield,[17],0.07
same,encoding yield,[18],0.02
same,encoding yield,[19],0.02
same,encoding yield,[20],0.03
same,encoding yield,[21],0.02
same,encoding yield,[22],0.01
same,encoding yield,[23],0.02
same,encoding yield,[24],0.06
same,encoding yield,[25],0.02
same,encoding yield,[26],0.03
same,encoding yield,[27],0.02
same,encoding yield,[28],0.01
same,encoding yield,[29],0.01
same,encoding yield,[30],0.01
same,encoding yield,[31],0.02
same,encoding yield,[32],0.02
same,encoding yield,[33],0.04
same,encoding yield,[34],0.02
same,encoding yield,[35],0.06
same,encoding yield,[36],0.01
same,encoding yield,[37],0.02
same,encoding yield,[38],0.1
same,encoding yield,[39],0.01
same,encoding yield,[40],0.01
same,encoding yield,[41],0.02
same,encoding yield,[42],0.01
same,encoding yield,[43],0.03
same,encoding yield,[44],0.03
B2,encoding yield,[1],0.03
same,encoding yield,[2],0.04
same,encoding yield,[3],0.04
same,encoding yield,[4],0.03
same,encoding yield,[5],0.05
same,encoding yield,[6],0.03
same,encoding yield,[7],0.04
same,encoding yield,[8],0.06
same,encoding yield,[9],0.02
same,encoding yield,[10],0.02
same,encoding yield,[11],0.28
same,encoding yield,[12],0.05
same,encoding yield,[13],0.11
same,encoding yield,[14],0.02
same,encoding yield,[15],0.04
same,encoding yield,[16],0.02
same,encoding yield,[17],0.1
same,encoding yield,[18],0.02
same,encoding yield,[19],0.02
same,encoding yield,[20],0.04
same,encoding yield,[21],0.03
same,encoding yield,[22],0.01
same,encoding yield,[23],0.03
same,encoding yield,[24],0.15
same,encoding yield,[25],0.02
same,encoding yield,[26],0.03
same,encoding yield,[27],0.03
same,encoding yield,[28],0.01
same,encoding yield,[29],0.01
same,encoding yield,[30],0.02
same,encoding yield,[31],0.02
same,encoding yield,[32],0.04
same,encoding yield,[33],0.05
same,encoding yield,[34],0.03
same,encoding yield,[35],0.1
same,encoding yield,[36],0.01
same,encoding yield,[37],0.02
same,encoding yield,[38],0.23
same,encoding yield,[39],0.02
same,encoding yield,[40],0.03
same,encoding yield,[41],0.03
same,encoding yield,[42],0.02
same,encoding yield,[43],0.03
same,encoding yield,[44],0.06
B3,encoding yield,[45],0.01
same,encoding yield,[46],0.02
same,encoding yield,[47],0.01
same,encoding yield,[48],0.02
same,encoding yield,[49],0.01
same,encoding yield,[50],0.03
same,encoding yield,[51],0.01
same,encoding yield,[52],0.01
same,encoding yield,[53],0.01
same,encoding yield,[54],0.01
B4,encoding yield,[45],0.01
same,encoding yield,[46],0.1
same,encoding yield,[47],0.02
same,encoding yield,[48],0.1
same,encoding yield,[49],0.04
same,encoding yield,[50],0.01
same,encoding yield,[51],0.01
same,encoding yield,[52],0.02
same,encoding yield,[53],0.01
same,encoding yield,[54],0.04
